# Experimental data: patent US9206432B2, “Sulfonylurea-responsive repressor proteins” (priority 2008, dated 2015)
# Tested on: lacZ under control of the tetA promoter (PtetA) in E. coli KM3
# Type: cell-based
# Details: for 0.2 ppm 48 hr (colony color intensity, induction by chlorsulfuron): 0.2 ppm chlorsulfuron as inducer, 48 hr at 30° C.; for 0.2 ppm 48 hr (colony color intensity, induction by chlorsulfuron) / Control 84 hr (background activity, no inducer): M9 assay plates, ImageJ colony color intensity; for Control 84 hr (background activity, no inducer): 84 hr at 30° C.
Molecule,0.2 ppm 48 hr/Control 84 hr,"0.2 ppm 48 hr (colony color intensity, induction by chlorsulfuron)","Control 84 hr (background activity, no inducer)",other results
"L1-34: library L1 hit with reverse repressor activity (SEQ ID NO: 1206-1213) (protein, rSuR L1-34) MGSRLDKSKVINSALELLNEVGIEGLTTRKLAQKLGVEQPTLYWHVKNKRALLDALAIEMADRHNTHFCPLEGESWQDFLRNAARSMRCALLSHRDGAKVYLGTARTEKQYETTENVLAFLCQQGFSLENALYAVRAVPRFTLGCVLLDQERQVAKEERETPTTDSMPPLLRQARELTDHQGAEPAFLFGLELIICGLEKQLKCESGS",–,–,–,"relative β-galactosidase activity, inducer atc (Table 6, reverse repressor hits, anhydrotetracycline (0.4 μM)): 3.68; relative β-galactosidase activity, inducer Ci (Table 6, reverse repressor hits, chlorimuron, same plate assay format (20 ppm)): 0.43; relative β-galactosidase activity, inducer Cs (Table 6, reverse repressor hits, chlorsulfuron, same plate assay format (20 ppm)): 0.85; relative β-galactosidase activity, inducer Es (Table 6, reverse repressor hits, ethametsulfuron, same plate assay format (20 ppm)): 1.33; relative β-galactosidase activity, inducer Ms (Table 6, reverse repressor hits, metsulfuron, same plate assay format (20 ppm)): 1.47; relative β-galactosidase activity, inducer Ns (Table 6, reverse repressor hits, nicosulfuron, same plate assay format (20 ppm)): 2.91; relative β-galactosidase activity, inducer Rs (Table 6, reverse repressor hits, rimsulfuron, same plate assay format (20 ppm)): 2.30; relative β-galactosidase activity, inducer Sm (Table 6, reverse repressor hits, sulfometuron, same plate assay format (20 ppm)): 2.00; relative β-galactosidase activity, inducer Ts (Table 6, reverse repressor hits, thifensulfuron, same plate assay format (20 ppm)): 2.97; relative β-galactosidase activity, inducer Tb (Table 6, reverse repressor hits, tribenuron, same plate assay format (20 ppm)): 2.26"
"L6-1B03 (protein, Sulfonylurea responsive repressor L6-1B03) MGSRLDKSKVINSALELLNEVGIEGLTTRKLAQKLGVEQPTLYWHVKNKRALLDALAIEMMDRHATHICPLEGESWQDFLRNNAKSMRCALLSHRDGAKVCLGTRWTEQQYEAAENMLAFLCQQGFSLENALYAVSAVRVFTLGCVLFDQESQVAKEERETPTTASMPPLLRQAWELKDHQGAEPAFLFGLELIICGLEKQLKCESGS",4.6,30.0,6.6,–
"L6-5H12 (protein, Sulfonylurea responsive repressor L6-5H12) MGSRLDKSKVINSALELLNEVGIEGLTTRKLAQKLGVEQPTLYWHVKNKRALLDALAIEMMDRHATHYCPLEGESWQDFLRNNAKSMRCALLSHRDGAKVCLGTRWTEKQYETAENQLAFLCQQGFSLENALYAMSAVRVFTLGCVLFDQELQVAKEERETPTTASMPPLVRQAWELKDHQGAEPAFLFGLELIICGLEKQLKCESGS",4.2,23.7,5.7,–
"L6-2C09 (protein, Sulfonylurea responsive repressor L6-2C09) MGSRLDKSKVINSALELLNEVGIEGLTTRKLAQKLGVEQPTLYWHVKNKRALLDALAIEMMDRHQTHYCPLEGESWQDFLRNTAKSMRCALLSHRDGAKVCLGTRWTEQLYETAENQLAFLCQQGFSLENALYAMSAVRVFTLGCVLFDQELQVAKEERETPTTASMPPLLRQAWELKDHQGAEPAFLFGLELIICGLEKQLKCESGS",2.6,13.6,5.2,–
"L6-3H02: SuR polypeptide, SEQ ID NO: 94 (protein, Sulfonylurea responsive repressor L6-3H02) MGSRLDKSKVINSALELLNEVGIEGLTTRKLAQKLGVEQPTLYWHVKNKRALLDALAIEMMDRHATHYCPLEGESWQDFLRNTAKSMRCALLSHRDGAKVCLGTRWTEQHYESAENMLAFLCQQGFSLENALYAVSAVRVFTLGCVLFDQESQVAKEERETPTTASMPPLVRQAWELKVHQGAEPAFLFGLELIICGLEKQLKCESGS",2.8,15.8,5.6,–
"L6-5G06 (protein, Sulfonylurea responsive repressor L6-5G06) MGSRLDKSKVINSALELLNEVGIEGLTTRKLAQKLGVEQPTLYWHVKNKRALLDALAIEMMDRHQTHYCPLEGESWQDFLRNNAKSMRCALLSHRDGAKVCLGTRWTEQQYETAENQLAFLCQQGFSLENALYAVSAVRVFTLGCVLFDQELQVAKEERETPTTASMPPLLRQGWELKDHQGAEPAFLFGLELIICGLEKQLKCESGS",4.9,34.4,7.0,–
"L6-4D10 (protein, Sulfonylurea responsive repressor L6-4D10) MGSRLDKSKVINSALELLNEVGIEGLTTRKLAQKLGVEQPTLYWHVKNKRALLDALAIEMMDRHQTHYCPLEGESWQDFLRNNAKSMRCALLSHRDGAKVCLGTRWTEKQYESAENMLAFLCQQGFSLENALYAVSAVRVFTLGCVLFDQESQVAKEERETPTTASMPPLLRQAWELKDHQGAEPAFLFGLELIICGLEKQLKCESGS",3.7,18.4,5.0,–
"L6-2D07 (protein, Sulfonylurea responsive repressor L6-2D07) MGSRLDKSKVINSALELLNEVGIEGLTTRKLAQKLGVEQPTLYWHVKNKRALLDALAIEMMDRHQTHFCPLEGESWQDFLRNTAKSMRCALLSHRDGAKVCLGTRWTEQQYETAENMLAFLCQQGFSLENALYAMSAVRVFTLGCVLFDQESQVAKEERETPTTASMPPLVRQAWELKDHQGAEPAFLFGLELIICGLEKQLKCESGS",3.4,20.0,5.8,–
"L6-5F05 (protein, Sulfonylurea responsive repressor L6-5F05) MGSRLDKSKVINSALELLNEVGIEGLTTRKLAQKLGVEQPTLYWHVKNKRALLDALAIEMMDRHATHICPLEGESWQDFLRNNAKSMRCALLSHRDGAKVCLGTRWTEQQYEAAENQLAFLCQQGFSLENALYAVSAVRVFTLGCVLFDQELQVAKEERETPTTASMPPLLRQAWELKDHQGAEPAFLFGLELIICGLEKQLKCESGS",4.1,22.0,5.4,–
"L6-6F07 (protein, Sulfonylurea responsive repressor L6-6F07) MGSRLDKSKVINSALELLNEVGIEGLTTRKLAQKLGVEQPTLYWHVKNKRALLDALAIEMMDRHATHLCPLEGESWQDFLRNTAKSMRCALLSHRDGAKVCLGTRWTEQQYESAENMLAFLCQQGFSLENALYAMSAVRVFTLGCVLFDQESQVAKEERETPTTASMPPLLRQAWELKDHQGAEPAFLFGLELIICGLEKQLKCESGS",2.3,11.6,5.1,–
"L6-5H06 (protein, Sulfonylurea responsive repressor L6-5H06) MGSRLDKSKVINSALELLNEVGIEGLTTRKLAQKLGVEQPTLYWHVKNKRALLDALAIEMMDRHQTHICPLEGESWQDFLRNNAKSMRCALLSHRDGAKVCLGTRWTEKQYETAENMLAFLCQQGFSLENALYAVSAVRVFTLGCVLFDQELQVAKEERETPTTASMPPLVRQAWELKDHQGAEPAFLFGLELIICGLEKQLKCESGS",2.7,13.7,5.1,–
